# Target: Recombinant human RAGE/Fc chimera (R&D Systems cat. No. 1145-RG) (human)
# Assay: SPR (Biacore), 200 nM protein over immobilized RAGE/Fc, Req or late association response
# Chain of Recombinant human RAGE/Fc chimera (R&D Systems cat. No. 1145-RG) (human) (Q15109 23-344, change not shown, form in doubt): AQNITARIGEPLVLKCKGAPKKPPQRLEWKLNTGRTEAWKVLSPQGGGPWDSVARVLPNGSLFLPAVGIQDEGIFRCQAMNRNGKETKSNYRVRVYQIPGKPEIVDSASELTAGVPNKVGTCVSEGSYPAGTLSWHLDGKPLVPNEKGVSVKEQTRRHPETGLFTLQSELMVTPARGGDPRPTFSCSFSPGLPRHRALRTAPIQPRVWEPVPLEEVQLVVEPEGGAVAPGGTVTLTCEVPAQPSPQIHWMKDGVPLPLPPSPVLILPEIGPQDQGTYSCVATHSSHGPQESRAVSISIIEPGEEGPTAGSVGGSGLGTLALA
substance,measurement,value
"Recombinant S100A9, expressed as the full-length sequence of native protein in E. coli (ligand)","fold higher binding than the next group of RAGE binders (AnxII, S100A12, and S100A8/9)",> 10 fold

# From EP1986009A1
